For one molecule, koff results are on record in patent publication US20250074995A1 (I MAB BIOPHARMA, published 2025).

This experiment addresses T1, monomeric human 4-1BB (human, UniProt Q07011 24-186).
T1 construct: SPR analyte or ligand
As to the kind of experiment: SPR with monomeric human 4-1BB.

B1: parental anti-4-1BB sdAb antibody conjugated with IgG1 Fc fragment (Fc fusion)
chain: QVQLQESGGGLVQPGGSLRLSCAASGYTYSSNCMGWFRQAPGKGLEGVAVICTGGGSPSYADSVKGRFTISRDNAKNTLYLQMNSLRAEDTAVYYCAADLLRAGTPLSSYEFNYWGQGTLVTVSS
notes: also called 4-1BB sdAb-Fc; not shown: IgG1 Fc fragment
For the molecule B1, the koff turned out to be 0.000168 s⁻¹.

Broadly, the koff is the first-order rate constant of dissociation. A low value points to a long-lived complex.
